Assay [1] deals with CAT1/SLC7A1 (UniProt P30825). Briefly: flow cytometry, HEK293T cells with siSMVT A (endogenous receptor), saturating ligand, Alexa488 anti-mouse IgG1.
Assay [2] concerns the target CAT1/SLC7A1 (UniProt P30825). Description: flow cytometry, HEK293T cells with control siRNA siLUC (endogenous receptor), saturating ligand, Alexa488 anti-mouse IgG1. (Flow cytometry measures light scatter and fluorescence of single cells or particles in a stream.)
Assay [3] concerns the target XPR1/SLC53A1. Description: flow cytometry, HEK293T cells with siSMVT A (endogenous receptor), saturating ligand, Alexa488 anti-mouse IgG1.
The target in assay [4] is XPR1/SLC53A1. Description: flow cytometry, HEK293T cells with control siRNA siLUC (endogenous receptor), saturating ligand, Alexa488 anti-mouse IgG1.
Chain of XPR1/SLC53A1 (Q9UH99 whole entry): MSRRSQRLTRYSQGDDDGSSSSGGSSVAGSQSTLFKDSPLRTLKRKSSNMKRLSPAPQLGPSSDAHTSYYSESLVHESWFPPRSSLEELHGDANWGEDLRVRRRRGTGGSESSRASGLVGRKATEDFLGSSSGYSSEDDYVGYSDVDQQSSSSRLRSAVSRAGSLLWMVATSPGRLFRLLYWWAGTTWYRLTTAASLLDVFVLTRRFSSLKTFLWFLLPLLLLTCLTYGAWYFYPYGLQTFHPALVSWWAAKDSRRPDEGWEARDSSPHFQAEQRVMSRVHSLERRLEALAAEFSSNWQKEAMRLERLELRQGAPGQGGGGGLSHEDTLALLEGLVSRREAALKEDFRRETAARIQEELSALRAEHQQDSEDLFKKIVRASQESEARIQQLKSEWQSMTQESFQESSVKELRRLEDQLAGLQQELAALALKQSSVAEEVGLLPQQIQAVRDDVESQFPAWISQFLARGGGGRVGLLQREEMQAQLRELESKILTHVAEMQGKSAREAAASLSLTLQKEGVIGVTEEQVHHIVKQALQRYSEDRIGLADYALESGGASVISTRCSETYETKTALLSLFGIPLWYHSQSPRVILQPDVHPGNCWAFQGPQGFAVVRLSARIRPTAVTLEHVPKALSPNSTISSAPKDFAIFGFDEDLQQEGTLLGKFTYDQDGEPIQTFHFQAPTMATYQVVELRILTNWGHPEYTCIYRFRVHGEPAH
The target in assay [5] is GLUT1/SLC2A1 (glucose transporter type 1) (UniProt P11166). Description: flow cytometry, HEK293T cells with siSMVT A (endogenous receptor), saturating ligand, Alexa488 anti-mouse IgG1.
Chain of GLUT1/SLC2A1 (glucose transporter type 1) (P11166 whole entry): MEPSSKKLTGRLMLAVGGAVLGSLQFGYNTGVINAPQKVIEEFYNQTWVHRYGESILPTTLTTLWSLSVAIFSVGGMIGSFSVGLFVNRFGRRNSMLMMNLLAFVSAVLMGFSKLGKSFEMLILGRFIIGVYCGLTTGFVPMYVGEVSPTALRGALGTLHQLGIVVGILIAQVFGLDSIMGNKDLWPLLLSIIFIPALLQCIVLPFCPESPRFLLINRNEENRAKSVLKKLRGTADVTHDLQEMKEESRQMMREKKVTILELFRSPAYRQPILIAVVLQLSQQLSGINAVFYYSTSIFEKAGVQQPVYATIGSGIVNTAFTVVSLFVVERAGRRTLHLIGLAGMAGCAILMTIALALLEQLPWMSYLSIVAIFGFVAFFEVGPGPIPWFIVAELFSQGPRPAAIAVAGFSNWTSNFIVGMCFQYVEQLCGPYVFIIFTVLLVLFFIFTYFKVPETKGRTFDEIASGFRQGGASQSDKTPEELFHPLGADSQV
Assay [6] has the same target. Briefly: flow cytometry, HEK293T cells with control siRNA siLUC (endogenous receptor), saturating ligand, Alexa488 anti-mouse IgG1.
In assay [7] the target is T1, sodium-dependent multivitamin transporter / solute carrier family 5 member 6 (SMVT/SLC5A6) (human, UniProt Q9Y289 1-635).
T1 construct: also called SLC5A6/SMVT
T1 sequence: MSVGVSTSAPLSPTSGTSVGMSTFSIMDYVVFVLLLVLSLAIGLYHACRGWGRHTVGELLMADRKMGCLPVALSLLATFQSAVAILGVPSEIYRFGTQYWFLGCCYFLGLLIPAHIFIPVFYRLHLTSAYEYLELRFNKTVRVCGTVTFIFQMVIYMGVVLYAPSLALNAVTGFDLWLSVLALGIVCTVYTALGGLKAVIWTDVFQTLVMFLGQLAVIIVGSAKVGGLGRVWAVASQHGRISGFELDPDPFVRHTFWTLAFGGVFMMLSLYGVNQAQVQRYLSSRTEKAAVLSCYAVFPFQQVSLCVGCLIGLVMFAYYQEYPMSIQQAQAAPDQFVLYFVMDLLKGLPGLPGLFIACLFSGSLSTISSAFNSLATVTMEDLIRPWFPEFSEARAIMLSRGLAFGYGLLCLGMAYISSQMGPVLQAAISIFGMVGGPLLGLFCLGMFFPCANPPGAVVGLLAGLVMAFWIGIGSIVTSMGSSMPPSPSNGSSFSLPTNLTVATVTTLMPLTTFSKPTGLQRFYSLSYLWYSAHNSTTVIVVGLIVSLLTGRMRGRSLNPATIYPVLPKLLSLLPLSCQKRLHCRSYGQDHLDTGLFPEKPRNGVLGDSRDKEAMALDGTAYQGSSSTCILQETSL
Briefly: flow cytometry on HEK293T cells, siSMVT A against siLUC control.

Chain of CAT1/SLC7A1 (P30825 whole entry): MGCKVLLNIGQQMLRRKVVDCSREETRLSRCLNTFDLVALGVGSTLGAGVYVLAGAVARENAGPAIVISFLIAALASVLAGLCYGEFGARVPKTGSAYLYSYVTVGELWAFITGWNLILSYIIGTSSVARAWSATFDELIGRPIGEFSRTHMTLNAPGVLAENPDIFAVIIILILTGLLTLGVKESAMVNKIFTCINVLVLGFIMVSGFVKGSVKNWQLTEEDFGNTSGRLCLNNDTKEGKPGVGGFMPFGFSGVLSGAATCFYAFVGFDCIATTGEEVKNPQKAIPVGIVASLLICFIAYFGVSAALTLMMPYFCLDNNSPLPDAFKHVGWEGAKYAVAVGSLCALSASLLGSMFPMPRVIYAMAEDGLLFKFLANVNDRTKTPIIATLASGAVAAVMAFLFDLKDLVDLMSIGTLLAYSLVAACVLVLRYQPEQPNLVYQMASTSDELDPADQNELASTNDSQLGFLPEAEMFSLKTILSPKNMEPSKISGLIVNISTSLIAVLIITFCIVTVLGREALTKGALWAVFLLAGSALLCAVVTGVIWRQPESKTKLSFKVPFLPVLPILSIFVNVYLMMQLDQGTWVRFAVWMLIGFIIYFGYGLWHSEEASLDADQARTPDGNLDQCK

In the case of “RBD derived from the bovine leukemia virus (BLV), fusion protein with mFC (Fc fusion)”, the relative specific binding (delta of the geometric mean of the fluorescence intensity) with CAT1/SLC7A1 [1] and with CAT1/SLC7A1 [2] was 110 throughout.
As for “RBD from a xenotropic murine retrovirus (XRBD), fusion protein with mFC (Fc fusion)”, the values for the relative specific binding (delta of the geometric mean of the fluorescence intensity) with XPR1/SLC53A1 [3] and with XPR1/SLC53A1 [4] were 14.6 and 12.6, respectively.
On to “human T-cell leukemia virus type 2 (HTLV2)-RBD, fusion protein with mFC (Fc fusion)”, for which the figures for the relative specific binding (delta of the geometric mean of the fluorescence intensity) in assay [5] and in assay [6] were 21.3 and 18.3, respectively.

B1: PERV-B RBD ligand fused to a mouse Fc fragment (SEQ ID NO: 13) (Fc fusion)
chain: KRLIDSSNPHRPLSLTWLIIDPDTGVTVNSTRGVAPRGTWWPELHFCLRLINPAVKSTPPNLVRSYGFYCCPGTEKEKYCGGSEESFCRRWSCVTSNDGDWKWPISLQDRVKFSFVNSGPGKYKVMKLYKDKSCSPSDLDYLKISFTEKGKQENIQKWINGMSWGIVFYKYGGGAGSTLTIRLRIEAGTEPPVAVGSVDVPRDCGCKPCICTVPEVSSVFIFPPKPKDVLTITLTPKVTCVVVDISKDDPEVQFSWFVDDVEVHTAQTQPREEQFNSTFRSVSELPIMHQDWLNGKEFKCRVNSAAFPAPIEKTISKTKGRPKAPQVYTIPPPKEQMAKDKVSLTCMITDFFPEDITVEWQWNGQPAENYKNTQPIMDTDGSYFVYSKLNVQKSNWEAGNTFTCSVLHEGLHNHHTEKSLSHSPGK
For the molecule B1, the “fold drop of specific binding with anti-SMVT siRNA against siLUC” value in assay [7] was greater than 2 fold.

For the origin of these results see patent US20220003782A1 (METAFORA BIOSYSTEMS, published 2022).
